± gives the standard deviation.

The series is described as follows: protein stability index of a GFP-peptide fusion (GPS, HEK-293T) (PSI 1-6); higher = more stable. Particulars: c terminus: a fixed tail appended.
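Further: 24-mer peptide tiles fused after GFP, lentivirally expressed, FACS-sorted into six equal bins by GFP/DsRed ratio, decoded by Illumina sequencing, PSI is the read-weighted mean bin number.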

On to MEAAREGHEEMVALLLGQGANINA [ANKRD17], for which the protein stability index runs as follows: (treatment: DMSO) 4.16 ± 0.17; (treatment: MLN4924 1 uM, 8 h) 4.15 ± 0.24.
Take MESSKPGPVQVVLVQKDQHSFELD [ATL3]: the protein stability index (treatment: DMSO) was determined as 4.35 ± 0.19 and the protein stability index (treatment: MLN4924 1 uM, 8 h) was 4.04 ± 0.33.
For the sequence MGFAAKAMKSVHENMDLNKIDDLM [CHMP4C], the protein stability index by setting is: (treatment: DMSO) 3.59 ± 0.32; (treatment: MLN4924 1 uM, 8 h) 3.48 ± 0.3.
With MIGLYEPELGSGAGPAGTGTPSLL [EMID1], the protein stability index was 3.89 ± 0.53 (treatment: DMSO) and 3.65 ± 0.71 (treatment: MLN4924 1 uM, 8 h).
In the case of MKCLKVGMLKEGVRLDRVRGGRQK [ESRRG], the protein stability index (treatment: DMSO) is 3.5 ± 0.092 and the protein stability index (treatment: MLN4924 1 uM, 8 h) was determined as 3.73 ± 0.21.
For the sequence MKDISNLEENDETRFILSKVPSEA [SLC6A17], the protein stability index by setting is: (treatment: DMSO) 4.91 ± 0.24; (treatment: MLN4924 1 uM, 8 h) 4.94 ± 0.15.
MKQGGAALEGSALANGRALSAGSP [DLX1] returned a protein stability index (treatment: DMSO) of 4.67 ± 0.29 and a protein stability index (treatment: MLN4924 1 uM, 8 h) of 4.72 ± 0.13.
Turning to MKSEEQKIKDARKGPLVPFPNQKS [KMT5A], the protein stability index turned out to be 5.01 ± 0.18 (treatment: DMSO) and 5.23 ± 0.19 (treatment: MLN4924 1 uM, 8 h).
Turning to MMKAKGDLEMKEEEEISETGELVG [ZBED2], the protein stability index (treatment: DMSO) stood at 5.59 ± 0.27 and the protein stability index (treatment: MLN4924 1 uM, 8 h) is 5.35 ± 0.26.
The matching figures for MNLDIVDLLKKAKFHHSDCLSTWL [RHOBTB3]: 2.53 ± 0.4 and 2.44 ± 0.63.
For MPPKKQAQAGGSKKAEQKKKEKII [ZC3H15] the same measures were 4.63 ± 0.18 and 5.1 ± 0.39.
Regarding MPSGSEEKILRELSEEEEDEEEEE [KCNA4], the protein stability index was 5.53 ± 0.59 (treatment: DMSO) and 5.69 ± 0.14 (treatment: MLN4924 1 uM, 8 h).
Regarding MQHSFPEPGRLYLDLILAILALEL [TMEM192], the protein stability index stood at 2.62 ± 0.41 (treatment: DMSO) and 2.45 ± 0.36 (treatment: MLN4924 1 uM, 8 h).
The matching figures for MQVFAKLGTDPTHVMGLYPDLLPT [VPS39]: 2.16 ± 0.27 and 2.35 ± 0.25.
Consider MSFTTRSTFSTNYRSLGSVQAPSY [KRT18], for which the protein stability index (treatment: DMSO) was found to be 2.37 ± 0.29 and the protein stability index (treatment: MLN4924 1 uM, 8 h) was found to be 2.38 ± 0.3.
The matching figures for MSLVLHGNNLLVFGGTGIPFGESN [KLHDC10]: 2.74 ± 0.69 and 2.81 ± 0.52.
The matching figures for MTTLTHRARRTEISKNSEKKMESE [GOLPH3L]: 5 ± 0.55 and 5.07 ± 0.18.
As for MTVPATAIYFTAYDQLKAFLCGRA [SLC25A39], the protein stability index reads like this: (treatment: DMSO) 2.35 ± 0.51; (treatment: MLN4924 1 uM, 8 h) 2.23 ± 0.33.
MVATANNRQTFVNSAIRFLRKYSF [CHIT1] yielded a protein stability index (treatment: DMSO) of 2.65 ± 0.19 and a protein stability index (treatment: MLN4924 1 uM, 8 h) of 2.63 ± 0.14.
Regarding MVIHIPEEPRPSRPRYKADVPDLQ [KCNK9], the protein stability index is, setting by setting: (treatment: DMSO) 3.02 ± 0.21; (treatment: MLN4924 1 uM, 8 h) 3.24 ± 0.18.
Turning to MVIQLLAIMCVSCICWSPFLVTMA [PTGFR], the protein stability index was determined as 3.11 ± 0.45 (treatment: DMSO) and 3.22 ± 0.36 (treatment: MLN4924 1 uM, 8 h).
Turning to MVSSVLCRCVASPPPDAAATAASS [SLC25A25], the protein stability index (treatment: DMSO) is 2.94 ± 0.24 and the protein stability index (treatment: MLN4924 1 uM, 8 h) was 2.92 ± 0.22.
The matching figures for MYFSSLFPYVVLACFLVRGLLLRG [SLC6A17]: 2.9 ± 0.65 and 2.65 ± 0.72.
Consider MYQELMEMCHKPDVELLQDLGDIV [TRIM43], for which the protein stability index by setting is: (treatment: DMSO) 2.57 ± 0.28; (treatment: MLN4924 1 uM, 8 h) 2.71 ± 0.45.
On to NALTLFNLAQDPQCKEWQVLMCGF [TMEM120A], for which the protein stability index is, setting by setting: (treatment: DMSO) 2.26 ± 0.38; (treatment: MLN4924 1 uM, 8 h) 2.06 ± 0.16.
With NARRKLKGAILTTMLATRNFSAAK [CAMK2B], the protein stability index is, setting by setting: (treatment: DMSO) 3.08 ± 0.33; (treatment: MLN4924 1 uM, 8 h) 3.15 ± 0.36.
For NARRRLKKENKMTWAPKNKGGEER [IRX6], the protein stability index stood at 4.51 ± 0.27 (treatment: DMSO) and 4.63 ± 0.098 (treatment: MLN4924 1 uM, 8 h).
As to NDFVQVDPGQVGLINSNVSMVDLT [FAN1], the protein stability index is, setting by setting: (treatment: DMSO) 3.9 ± 0.39; (treatment: MLN4924 1 uM, 8 h) 4.24 ± 0.15.
For NDLQDLREQILRVKDTDDVPMILV [RAP1B] the same measures were 2.82 ± 0.3 and 3.06 ± 0.21.

For the origin of these results see the supplement of paper PMC10567573.
